Molecular target: StayRose (His-tagged StayGold bearing 3-aminotyrosine at Y58) (Cytaeis uchidae)
Assay: SEC; Superdex 75 Increase 10/300 GL, 20 mM Hepes, 150 mM NaCl, pH 7.5, 0.8 ml/min; ~1 mg/ml (38 uM) protein loaded via a 0.5 ml loop

stoichiometry N: 2
Substance: StayRose (His-tagged StayGold bearing 3-aminotyrosine at Y58)
